According to patent US20150018283A1:

Experiments:
[1] = molecular target: N-type calcium channels in cultured mouse dorsal root ganglion (DRG) neurons (Swiss mice) (UniProt O55017); experiment: cell-based or functional assay
[2] = molecular target: N-type Ca channels (receptor binding screen of Example 1)
IL-8RB = IL-8RB (UniProt P25025); experiment: competitive radioligand binding; 10 µM unlabelled Tat-NR2B9c; competitor labeled IL-8
Chain of IL-8RB (P25025 whole entry): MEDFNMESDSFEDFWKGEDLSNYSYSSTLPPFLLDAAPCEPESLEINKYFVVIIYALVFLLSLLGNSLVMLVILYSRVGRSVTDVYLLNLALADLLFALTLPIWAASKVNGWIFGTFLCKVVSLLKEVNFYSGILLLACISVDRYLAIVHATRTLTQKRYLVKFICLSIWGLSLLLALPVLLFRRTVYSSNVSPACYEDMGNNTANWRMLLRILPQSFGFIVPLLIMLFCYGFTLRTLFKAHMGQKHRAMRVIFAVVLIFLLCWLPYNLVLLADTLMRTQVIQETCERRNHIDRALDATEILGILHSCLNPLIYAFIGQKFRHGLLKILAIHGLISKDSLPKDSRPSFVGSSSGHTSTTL

| Molecule | Ca^2+ current shown as a percentage, peptide at 100 µM [1] | % inhibition of labeled ligand binding [2] | % inhibition of labeled ligand binding (IL-8RB) |
| --- | --- | --- | --- |
| 1987 D-Tat-NR2B9c (peptide) | 82% | – | – |
| 1993 F-Tat-NR2B9c (peptide) | 91% | – | – |
| Tat-NR2B9c (peptide) | – | 100% | 80% |
| 1990 TAT (peptide) | 57% | – | – |
| 1992 Tat-NR2B9c-AA (peptide) | 74% | – | – |
| KLSSIESDV [1991 2B9c] | 94% | – | – |
